The source of these data is a protein production outcome set (Wang et al. 2014).

This data set in a line: label from the status in PepcDB records.
In the case of “MQVLVVGANGQVGRLLMQQLLAAGDTPVAGLKPTEDGEEWADQGLMVCKMDLLAKPEQLASAIMGMDAVIFAAGSGGQTKADMTLLIDLDGAVKTMQAAEIAGVSRFLMISMLFAEDRNRWADPLKPLYVAKFYADNWLVRQTHLDYTIVQPGALSFHAGTGLIKSDPLAVGSVPRADLAAFLVAALHAPQTIGKTIPLLSGDQSIAQVIDQL”, the protein production entry was “failed”.

Turning to “MQVSQANLNLNFDANSLQRGKRYFSQGRVQNLVRETEGMSIQVLRAEVSGSQRQLYITEVRFDRYLPGKINTFCSCPVGFRCKHAAAVILQANHEAGLSAEKYESEADTRYKYPTAETWLEQAASVFSSIDNASNPECLAYLLHIEPHRSQQTLSVNKVRRRKSGEYSRGSKTTVWSRTNLEYDRPKYLRESDIAPLTWLNALPTAFRVSPVLEGTTGAYFIESALKTRRFFLESTQNPPLQLGETLESGFEWMQLPDKQHWQLVSKALPSHIRLLNTSPAYYLDEKELLIGRVENSLDARTTALLQQCPPLAESQLQQALPDLAPILEKAGAVLPESFQVPSMVQAAPQPILQLYSLQHPAPGTLPLLMARLMFSYEGHRVAFSEQEPRVLVDGNNGPLLVIRDEDAEIEWLHRDLPDFKMAGTMTDHLEADMVNALPYGSFLDFTLPTRNQWLDFIAFDLPRLDAGGWQIEMDESFDIPVIEIDQLHGSLKPDEESPGWFDVEVGIDYNGTQIDLIPLLQQALVYLDLNNDSDDALPETLWLHNGDALIRVVSDRIRPLVRTLLSLLGKERGGKLRLPKLDAAQVMGDLAADWQCSAELRNLSEKLTSFQALNHVPVPSEVRAELRHYQQDGLNWLMFLREFGLGGVLADDMGLGKTLQTLACIQAEKTAGRLTAPALVVCPTTLIANWEAEAEKFTPGLKRLVIHGQRRKPFFDMVAEADLVITSYPLLHRDLEQHQNQSYSLAFFDEAQHLKNPATVTSKAARRLPAENRIALTGTPMENHLGELWALFDLILPGYLADQKIFREHYRKPIEEQGNQSRYAELSRRVRPFMLRRTKDQVTPELPEKTEIVRHVELNRQQKDLYETIRATMDKRIRKLLAEKGAARSQIEILDALLKLRQICCHPALLNPEETAGSAKLDSLMEMLEQLLDEGRKVIIFSQFTSMLALIETTLKAAGIGYEKLTGQTRDRATPVKRFQNGESPVFLISLKAGGTGLNLTAADCVIHYDPWWNPAAEQQATDRAWRIGQDKPVFVYRLITEGTVEERIQALQARKSQLADGLYGKADTFSSAITADDISVLFEK”, the protein production result is “failed”.

For the sequence “MQYATLELNNAFKVLFSLRQVQAAEMVIAPGDREGGPDNRHRGADQWLFVVDGAGEAIVDGHTQALQAGSLIAIERGQAHEIRNTGDTPLKTVNFYHPPAYDAQGEPLPAGEG”, the protein production result is reported as “not failed”.

Consider “MQYLIVKYSHQIFVTITILVFNIRFFLLWKNPEKPLAGFWKALPHLNDTMLLFTGLWLMKITHFSPFNAPWLGTKILLLLAYIALGMMMMRARPRSTKFYTVYLLAMCCVACIVYLAKTKVLPF”, for which the protein production result was “failed”.

With “MRAALTGGGLVLAYTAVISSADAITKLIAQGYAAPQLYAISGLIVAAISLAAARRNRARALKTVCPRAMALRALATVVASLCFFHTFRLLPFADVFVFIGLMPIMAALMSGLMLDEHARPAAWAALVAGFVGVLCLMPGGIGAIGAGHLWALGGVVTGTFSLILSRYIGRYESNALAQVFYPNLALGLSMAAALPFVWVPMPMLDLAWVGAYAALLFLARWLLVIALRLLAAYVVTPLLNLQFVWMVALGALAFGEWPAPMTWLGAAIVMVSGLYLIWDQMTPTTREQEELSLRTDP”, the protein production entry was “failed”.

In the case of “MRAFDAYKILDEQEAGSLIDLIAPCMDDYLYIIDLKNDTLRISQSAVERFMLPDKFMNDATKHLRTLVYEKDRKLLENHKRKIYDGKEKRYNVLCRLMNSKNLPVWINCRGEVINDEAGKPRYIIGCMNETGTRQRADNISGLLGEKEMASYLYSQPKEKLSGYFIQIGIDDFGIINNVQGQIYGNYILKRVAECIAECLSSGQRIYHLVTDKYMLVDMLSKSQDDVVQLFKRIGEKIDEFIVDENYKSIFSISAGVTDISTLAEDAIECRKKSDFSLKCAKKRGGGSLYFFEEEDYKVSLRKNTILSALRSATVNDFEGFEVYYQPILDSADRIIGAEALLRFFMHSDEGDEMISPVEFIPLLEKSRLIIPVGEFVLNEAAKMCREMQQYIADFRVNINVSYIQIMRGSMANKILTAIRANNLRPESICIEMTESGFMDMTPCFCSFRKKLDENNIQFIIDDFGTGYSNLRYISEMNPDYVKIDKDFTARAMSSEKDYELFRKIIEMVHSINIKICIEGIEKEEWACAMKEIHVDYMQGYLYGRPCEKGVFLNNYGI”, the protein production entry is “failed”.

“MRAFFNSSMREKLSQLKARQQKQEMPANLSIIHALRATQEGFEDDGVMRNYDLLESQFKENLTKEDRELLESPKPNLEKLQELKIRLLEKNGIFKPPKQKSQISLVFGMNALVPLGTIKTL”: the protein production entry was “failed”.
